Reference: patent US20130224224A1 (Boehringer Ingelheim, published 2013)
Read-outs that look alike come from different tables or passages of the source.

What was measured:
[1] = target: T1, human CX3CR1 (human, UniProt P49238 1-355); assay: cell-based or functional assay
T1 sequence: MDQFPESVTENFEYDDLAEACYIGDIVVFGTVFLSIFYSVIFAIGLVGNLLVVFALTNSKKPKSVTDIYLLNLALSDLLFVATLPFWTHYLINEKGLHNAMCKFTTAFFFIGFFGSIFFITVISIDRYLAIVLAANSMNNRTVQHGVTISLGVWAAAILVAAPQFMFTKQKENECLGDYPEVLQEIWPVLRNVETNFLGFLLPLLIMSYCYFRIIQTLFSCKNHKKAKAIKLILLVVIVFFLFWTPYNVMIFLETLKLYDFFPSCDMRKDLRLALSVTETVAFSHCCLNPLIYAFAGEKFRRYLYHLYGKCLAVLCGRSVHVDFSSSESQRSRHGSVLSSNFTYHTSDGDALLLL

[2] = target: T1, human CX3CR1; assay: A647-fractalkine competition FACS, BA/F3-huCX3CR1
[3] = target: T1, human CX3CR1; assay: cell-based or functional assay; remark: listed apart in the source
[4] = target: T1, human CX3CR1; assay: A647-fractalkine competition FACS, BA/F3-huCX3CR1; remark: listed apart in the source

Row | Binder | IC50, Calcium influx [1] | IC50, Chemotaxis [1] | IC50, Ligand internalization [1] | IC50 [2] | IC50, Calcium influx [3] | IC50, Chemotaxis [3] | IC50, Ligand internalization [3] | IC50 [4]
1 | 307D-hFc (Fc fusion, CX3CR1BII00307 fused to a human IgG1 Fc domain with two mutations in CH2; expressed in HEK293T or NS0 cells) DVQLVESGGGLVQPGGSLRLSCAASGSIFSSTAMAWYRQAPGKRRDLVAAISTVGVTKYADSVKGRFTISRDNSKNTVYLQMNSLRPEDTAVYYCTSDPRRGWDTRYWGQGTLVTVSSGGGGSGGGGSGGGGSCPPCPAPEAAGGPSVFLFPPKPKDTLMISRTPEVTCVVVDVSHEDPEVKFNWYVDGVEVHNAKTKPREEQYNSTYRVVSVLTVLHQDWLNGKEYKCKVSNKALPAPIEKTISKAKGQPREPQVYTLPPSREEMTKNQVSLTCLVKGFYPSDIAVEWESNGQPENNYKTTPPVLDSDGSFFLYSKLTVDKSRWQQGNVFSCSVMHEALHNHYTQKSLSLSPGK | 3.2 nM | 3 nM | 0.37 nM | 0.7 nM | – | – | – | –
2 | 66B02-mFc (Fc fusion, 66B02 VHH fused to a mouse IgG2 Fc domain with D265A in CH2; expressed in HEK293T or NS0 cells; dimer form is told only as an aspect) EVQLVESGGGSVQAGESLRLSCAASGSIFSSNAMAWYRQAPGKRRDLVAAINSVGVTKYADSVKGRFTISRDNAKNTVYLQMNSLKPEDTAVYYCTSDPRRGWDTRYWGQGTLVTVSSGGGGSGGGGSGGGGSPPCKCPAPNLLGGPSVFIFPPKIKDVLMISLSPIVTCVVVAVSEDDPDVQISWFVNNVEVHTAQTQTHREDYNSTLRVVSALPIQHQDWMSGKEFKCKVNNKDLPAPIERTISKPKGSVRAPQVYVLPPPEEEMTKKQVTLTCMVTDFMPEDIYVEWTNNGKTELNYKNTEPVLDSDGSYFMYSKLRVEKKNWVERNSYSCSVVHEGLHNHHTTKSFSRTPGK | – | – | – | – | 0.98 nM | 0.89 nM | 0.52 nM | 0.57 nM
